{"source": "patent US20200181597A1", "about": "“Composition and Application of Arginine-depleting Agents for Cancer, Obesity, Metabolic Disorders, and Related Complications and Comorbidities” (THE HONG KONG POLYTECHNIC UNIVERSITY, priority 2018, published 2020)", "molecules": {"B1": {"name": "PEGylated rhArg (conjugate, UniProt P05089 1-322, looked up)", "Arginase-1": "MSAKSRTIGIIGAPFSKGQPRGGVEEGPTVLRKAGLLEKLKEQECDVKDYGDLPFADIPNDSPFQIVKNPRSVGKASEQLAGKVAEVKKNGRISLVLGGDHSLAIGSISGHARVHPDLGVIWVDAHTDINTPLTTTSGNLHGQPVSFLLKELKGKIPDVPGFSWVTPCISAKDIVYIGLRDVDPGEHYILKTLGIKYFSMTEVDRLGIGKVMEETLSYLLGRKKRPIHLSFDVDGLDPSFTPATGTPVVGGLTYREGLYITEEIYKTGLLSGLDIMEVNPSLGKTPEEVTRTVNTAVAITLACFGLAREGNHKPIDYLNPPK", "modifications": "PEGylated"}, "B2": {"name": "native rhArg: native recombinant human arginase (Tsui et al.) (protein, UniProt P05089 1-322, looked up)", "Arginase-1": "B1 Arginase-1"}, "B3": {"name": "PEGylated His-rhArg (conjugate)", "chain": "MHHHHHHMSAKSRTIGIIGAPFSKGQPRGGVEEGPTVLRKAGLLEKLKEQECDVKDYGDLPFADIPNDSPFQIVKNPRSVGKASEQLAGKVAEVKKNGRISLVLGGDHSLAIGSISGHARVHPDLGVIWVDAHTDINTPLTTTSGNLHGQPVSFLLKELKGKIPDVPGFSWVTPCISAKDIVYIGLRDVDPGEHYILKTLGIKYFSMTEVDRLGIGKVMEETLSYLLGRKKRPIHLSFDVDGLDPSFTPATGTPVVGGLTYREGLYITEEIYKTGLLSGLDIMEVNPSLGKTPEEVTRTVNTAVAITLACFGLAREGNHKPIDYLNPPK", "modifications": "PEGylated; His-rhArg, Synthesized in Lab"}}, "key": {"[1]": {"test_system": "mouse 3T3-L1 preadipocytes", "experiment": "3T3-L1 preadipocyte differentiation (oil red O, qRT-PCR)", "format": "cell-based", "conditions": "for adipogenesis and lipogenesis in 3T3-L1 cells (oil red O): added to culture medium, 6 days of differentiation", "description": "FIG. 23 illustrates that arginine depletion by adding N-ABD094-rhArg (SEQ ID NO: 50) (rhArg), bovine arginase or native arginine deiminase (ADI) to the culture medium, or using arginine-free medium inhibited the differentiation of mouse 3T3-L1 preadipocytes into adipocytes. […] (*The culture medium contains 0.4 mM L-arginine and can be converted into 0.4 mM L-ornithine and 0.4 mM urea by arginase, or 0.4 mM L-citrulline by ADI.). Cells grown in culture medium without addition of arginine depleting agents or metabolic products of arginase/ADI served as the control. Lipids in cells were stained with oil red O at 6 days after exposure to specific differentiation-inducing factors added to the medium.\nFIG. 24 illustrates that N-ABD094-rhArg (SEQ ID NO: 50) could suppress adipogenic and lipogenic genes in 3T3-L1 preadipocytes. Mouse 3T3-L1 preadipocytes were cultured for 6 days in medium supplemented with specific factors to induce differentiation into adipocytes (differentiated). Cells grown in medium without these factors remained undifferentiated. The medium was added with 2U/mL N-ABD094-rhArg (SEQ ID NO: 50) (rhArg). Cells grown in medium without the addition of N-ABD094-rhArg served as the control. The mRNA expression levels of several crucial (A) transcriptional regulators of adipogenesis, and (B) enzymes in lipogenic pathways were determined by real-time qRT-PCR, and expressed relative to the undifferentiated (control) group, which is set as 1. *P<0.05, one-way ANOVA followed by Fisher's LSD. Data are expressed as mean±SEM, n=3 for each group.\nFIG. 25 illustrates the response of 3T3-L1 preadipocytes to various concentrations of arginine Mouse 3T3-L1 preadipocytes were cultured in arginine-free medium with or without addition of varying concentrations of L-arginine for 6 days. Cells cultured in normal arginine-containing medium supplemented with differentiation inducing factors served as the positive (+ve) control of differentiation, while cells cultured in normal arginine-containing medium without supplementation of differentiation inducing factors served as the negative (−Ve) control of differentiation. One group of cells was cultured in normal arginine-containing medium supplemented with differentiation inducing factors and treated with 5U/mL N-ABD094-rhArg (SEQ ID NO: 50) (rhArg) to inhibit differentiation. (A) Cells were stained for lipids with oil red O, and staining intensity was quantified by measuring optical density, which is expressed as the percentage against the +ve control group. (B) The mRNA levels of several crucial lipogenesis related genes are expressed relative to cells cultured in arginine-free medium, which is set as 1. Data are expressed as mean±SEM, n=3 for each group.\nTo test the effect of N-ABD094-rhArg (SEQ ID NO: 50) on fat cells, mouse 3T3-L1 preadipocytes were used, which are commonly employed as cell-based model for studying adipogenesis [Green and Meuth, 1974, Cell 3:127-133]."}, "[2]": {"test_system": "circulating arginine", "conditions": "i.p., cited from earlier work"}, "[3]": {"test_system": "4T1 breast cancer allograft", "experiment": "4T1 breast cancer allograft study", "format": "in vivo, female nude mice", "conditions": "500U once per week", "description": "In another 4T1 breast cancer allograft study, female nude mice (5-6 weeks of age) were used. They were kept in groups of five per cage and provided food and water ad libitum. Cells of 4T1 breast cancer ([…]) were injected subcultuaneously into the right flank of the mice. […] There were one control group (n=8) and three experimental groups, including 500U PEGylated His-rhArg (SEQ ID NO: 101) (n=8), 500U N-ABD-rhArg (SEQ ID NO: 49) (n=6) and 250U N-ABD-rhArg (SEQ ID NO: 49) (n=8). Mice in the control group were injected with 1×PBS weekly. For the 500U ABD-rhArg group and the 250U ABD-rhArg group, mice were injected with 500U and 250U ABD-rhArg once a week, respectively; one group was injected with 500U PEG-rhArg once per week. The mice were sacrificed after 24 days of inoculation (i.e. 14 days after starting of experiment) because of necrosis of tumor in PBS control group. After sacrificing, the mice were dissected. Tumors were collected from the mice and measured their weight. Lungs were also collected and washed with 1×PBS. The lungs were fixed in Bouin's solution overnight and washed with 1×PBS after fixation. Lung metastatic nodules were counted."}, "[4]": {"experiment": "DIO mice treated with PEGylated His-rhArg", "format": "in vivo, C57BL/6J male mice", "description": "Production of PEGylated His-rhArg (SEQ ID NO: 101) is described in Example 30. C57BL/6J male mice with pre-existing diet-induced obesity (DIO) received i.p. injection of 300U PEGylated His-rhArg [SEQ ID NO: 101], or saline as vehicle control, at 7-day intervals for 5 weeks, while continuously being fed a HFD. […] Regular monitoring of plasma arginine concentrations confirmed that arginine remained at levels below the detection limit of the Biochrom 30 Amino Acid Analyzer (3 μM) throughout the study."}, "[5]": {"experiment": "Arginase specific activity, DAMO colorimetric assay", "format": "biochemical", "conditions": "37° C., pH 7.4, purified preparation", "description": "The arginase activity of the fusion proteins described herein can be substantially the same, lower, or higher than the activity of the arginase polypeptide from which it is derived. One unit of arginase activity is defined as the amount of fusion protein [e.g., BHA (SEQ ID NO; 75), BAH (SEQ ID NO: 76), N-ABD-rhArg (SEQ ID NO: 49), or N-ABD094-rhArg (SEQ ID NO: 50)] or arginase [e.g., BCA (SEQ ID NO: 70)] that catalyzes the production of 1 μmol of urea per min under standard assay conditions. The specific activity of the enzyme is expressed as activity units per mg of protein. Under standard diacetylmonoxime (DAMO) assay conditions (37° C., pH 7.4), the fusion proteins can have a specific activity that is about 5%, about 10%, about 15%, about 20%, about 25% about 30%, about 35% or about 40% lower or higher than the corresponding arginase polypeptide which it incorporates. In certain embodiments, fusion proteins can have a specific activity that is about 5% to about 40%, about 10% to about 40%, about 10% to about 35%, about 10% to about 30%, about 20% to about 30%, about 20% to about 35%, about 15% to about 30%, about 15% to about 25%, or about 10% to about 20% lower or higher than the corresponding arginase polypeptide which it incorporates.\nOne unit of enzyme activity is defined as the amount of enzyme (BCA, BHA or BAH) that catalyzes the production of 1 μmol urea per min under standard assay conditions. Specific activity of the enzyme is expressed as activity units per mg of protein.\nBriefly, a serial dilution of 0.3 mL BCA solutions together with 0.15 mL water and 720 mM arginine substrate at pH 7.4 was pre-incubated separately at 37° C. for 10 min. The enzymatic reaction was carried out by adding 0.3 mL arginine substrate to the pre-incubated enzyme solutions. […]\nThe urea formed from the above reaction was quantified using the DAMO direct colorimetric method described by World Health Organization (WHO). […] The absorbance at 540 nm was measured. […]"}}, "note": "Where “and” joins values, the source holds several entries; their conditions need not be identical. Identical values can stand only once.", "data": [{"molecule": "NC(N)=O", "note": "[urea]", "values": [{"measurement": "adipogenesis and lipogenesis in 3T3-L1 cells (oil red O)", "setting": "[1]", "result": "could not inhibit"}]}, {"molecule": "NCCC[C@H](N)C(=O)O", "note": "[L-ornithine]", "values": [{"measurement": "adipogenesis and lipogenesis in 3T3-L1 cells (oil red O)", "setting": "[1]", "result": "could not inhibit"}]}, {"molecule": "NC(=O)NCCC[C@H](N)C(=O)O", "note": "[L-citrulline]", "values": [{"measurement": "adipogenesis and lipogenesis in 3T3-L1 cells (oil red O)", "setting": "[1]", "result": "could not inhibit"}]}, {"molecule": "N=C(N)NCCC[C@H](N)C(=O)O", "note": "[L-arginine]", "values": [{"measurement": "threshold concentration for activation of Cebpa, Pparg and Scd1", "setting": "[1]; arginine-free medium supplemented with L-arginine, 6 days", "result": "10 to 40", "unit": "µM"}]}, {"molecule": "B1", "values": [{"measurement": "time circulating arginine below detection limit (3 μM)", "setting": "[2]; 1,500 U per rat (6 U/g)", "result": 6, "unit": "days"}]}, {"molecule": "B2", "values": [{"measurement": "circulating arginine within 3 hour of injection", "setting": "[2]; 7,500 U/rat", "result": "~20", "unit": "µM"}, {"measurement": "time for arginine to return to basal level post-injection", "setting": "[2]; 7,500 U/rat", "result": "~2", "unit": "days"}]}, {"molecule": "B3", "values": [{"measurement": "growth of 4T1 solid tumor", "setting": "[3]", "result": "inhibited the growth of the aggressive 4T1 solid tumor significantly"}, {"measurement": "metastasis nodules from the lungs vs control group", "setting": "[3]", "result": "very significantly reduced"}, {"measurement": "bodyweight after treatment", "setting": "[4]; 300U i.p. at 7-day intervals for 5 weeks, HFD continued", "result": 30, "unit": "g"}, {"measurement": "weight of liver, kidney, pancreas and heart vs vehicle-treated DIO mice", "setting": "[4]; 300U weekly", "result": "significantly lower"}, {"measurement": "weight of fat pad at visceral and subcutaneous depots", "setting": "[4]; 300U weekly, end of study", "result": "significantly reduced"}, {"measurement": "plasma arginine concentrations throughout the study", "setting": "[4]; 300U weekly, Biochrom 30 detection limit", "result": "< 3", "unit": "µM"}, {"measurement": "fasting blood glucose levels vs vehicle-treated DIO mice", "setting": "[4]; two weeks after treatment", "result": "lower"}, {"measurement": "insulin sensitivity (ITT) vs vehicle-treated DIO mice", "setting": "[4]; two weeks after treatment", "result": "significant increase"}, {"measurement": "Specific activity", "setting": "[5]", "result": 245, "unit": "U/mg"}, {"measurement": "Specific activity", "setting": "[5]; listed as PEGylated His-rhArg batch 3", "result": "189 U/mg and 213 U/mg"}]}]}
